The values that follow are results of earlier work, collected in article PMC2792886.

This data set concerns the target holoBirA (Escherichia coli) (UniProt P06709).

For orientation: Kd means the equilibrium constant for the complex coming apart. With holoBirA (from UniProt P06709), the Kd was 10 µM.
